Reference: patent publication US20220387555A1 (LUDWIG INSTITUTE FOR CANCER RESEARCH, published 2022)

Biological target: T1, human PDL1 protein (human, UniProt Q9NZQ7 19-238, limits assumed)
T1 construct: Plate-coated protein
Assay: titration ELISA, plates coated with human PD-L1, soluble monomeric decoy, anti-His tag detection

T1 sequence (Q9NZQ7 19-238 limits assumed): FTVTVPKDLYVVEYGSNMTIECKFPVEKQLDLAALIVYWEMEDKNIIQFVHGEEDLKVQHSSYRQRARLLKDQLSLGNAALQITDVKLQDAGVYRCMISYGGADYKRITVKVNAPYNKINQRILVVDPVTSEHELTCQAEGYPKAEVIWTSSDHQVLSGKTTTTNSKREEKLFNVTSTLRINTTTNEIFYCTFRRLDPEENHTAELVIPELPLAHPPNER

fold better binding than the WT PD1 decoy [fold]	Binder
10	PD1_4XMUT_M70 (with 6xHis) (receptor, also called soluble monomeric PD1 decoy variant) MASDSPDRPWNPPTFSPALLVVTEGDNATFTCSFSNTSESFVLNWYRMSPSNQDDRLAAFPEDRSQPGQDARFRVTQLPNGRDFHMSVVRARRNDSGTYFCGAISLAPKAKIKESLRAELRVTERRALEHHHHHH
~7.5	PD1_6XDM (with 6xHis) (receptor, also called PD-1 decoy variant 6XDM; soluble monomeric PD1 decoy variant) MASDSPDRPWNPPTFSPALLVVTEGDNATFTCSFSNTSESFVLNWYRMSPSNQVDRLAAFPEDRSQPGQDARFRVTQLPNGRDFHMSVVRARRNDSGTYFCGAISLAPKWKIKESLRAELRVTERRALEHHHHHH
